According to CN112048019A:

Legend:
[1] = target: CD47蛋白 (analyte in the ForteBio assay) (human) (UniProt Q08722); experiment: BLI (ForteBio), antibody captured on Protein A sensor, CD47 protein in solution at 6 concentrations
重组CD47-Fc融合蛋白 (human) = 重组CD47-Fc融合蛋白 (human) (UniProt Q08722); experiment: competition ELISA: CD47-Fc coated, antibody blocks binding of SIRPα-His, anti-His-HRP detection
[2] = target: CD47 on human cells (Jurkat target cells; human peripheral blood erythrocytes) (human) (UniProt Q08722); experiment: cell-based or functional assay

Kd [1]: 7.16 nM | koff [1]: 0.000463 s⁻¹ | kon [1]: 64700 M⁻¹ s⁻¹ | EC50 (重组CD47-Fc融合蛋白 (human)): 143 nM | 吞噬率/% (macrophage phagocytosis of CFSE-labelled Jurkat cells, flow cytometry) [2]: 18%
B1: 市售抗体B6H12 (antibody, from another filing, V domains shown)
VH: EVQLVESGGDLVKPGGSLKLSCAASGFTFSGYGMSWVRQTPDKRLEWVATITSGGTYTYYPDSVKGRFTISRDNAKNTLYLQIDSLKSEDTAIYFCARSLAGNAMDYWGQGTSVTVSS
VL: DIVMTQSPATLSVTPGDRVSLSCRASQTISDYLHWYQQKSHESPRLLIKFASQSISGIPSRFSGSGSGSDFTLSINSVEPEDVGVYYCQNGHGFPRTFGGGTKLEIK
